Assay results as given in patent publication US20200317779A1 (GREEN CROSS, published 2020).
Positions count from the first letter of the chain named.

B1: H16 (antibody, human IgG1, lambda, L234A L235A, V domains shown)
VH: EVQLVESGGGLVQPGGSLKLSCAASGFTFNTYAMNWVRQASGKGLEWVARIRSKYNNYATYYADSVKDRFTISRDDSQSTLYLQMNSLKTEDTAVYYCVRHGNFGNSYVSWFAYWGQGTLVTVSS
VL: QAVVTQEPSLTVSPGGTVTLTCRSSTGAVTTSNYANWVQQKPGQAPRGLIGGTNKRAPWTPARFSGSLLGDKAALTLSGAQPEDEAEYYCALWYSNLWVFGGGTKLTVLG
notes: humanized SP34 IgG1, lambda
B2: C16 (antibody, human IgG1, lambda, L234A L235A, V domains shown)
VH: B1 VH with A49G, L81A
VL: B1 VL
notes: humanized SP34 IgG1, lambda
B3: B15 (antibody, human IgG1, lambda, L234A L235A, V domains shown)
VH: B1 VH with A49G, Q78K, S79N
VL: B1 VL with D71G
notes: humanized SP34 IgG1, lambda
B4: G15 (antibody, human IgG1, lambda, L234A L235A, V domains shown)
VH: B1 VH with L81A
VL: B1 VL with D71G
notes: humanized SP34 IgG1, lambda
B5: A15 (antibody, human IgG1, lambda, L234A L235A, V domains shown)
VH: B1 VH with A49G, Q78K, S79N, L81A
VL: B1 VL with D71G
notes: humanized SP34 IgG1, lambda
B6: C15 (antibody, human IgG1, lambda, L234A L235A, V domains shown)
VH: B1 VH with A49G, L81A
VL: B1 VL with D71G
notes: humanized SP34 IgG1, lambda
B7: B08 (antibody, human IgG1, lambda, L234A L235A, V domains shown)
VH: B1 VH with A49G, Q78K, S79N
VL: B1 VL with V38F
notes: humanized SP34 IgG1, lambda; also called B8
B8: A08 (antibody, human IgG1, lambda, L234A L235A, V domains shown)
VH: B1 VH with A49G, Q78K, S79N, L81A
VL: B1 VL with V38F
notes: humanized SP34 IgG1, lambda; also called A8
B9: D07 (antibody, human IgG1, lambda, L234A L235A, V domains shown)
VH: B1 VH with A49G
VL: B1 VL with V38F, D71G
notes: humanized SP34 IgG1, lambda; also called D7
B10: A07 (antibody, human IgG1, lambda, L234A L235A, V domains shown)
VH: B1 VH with A49G, Q78K, S79N, L81A
VL: B1 VL with V38F, D71G
notes: humanized SP34 IgG1, lambda; also called A7
B11: E16 (antibody, human IgG1, lambda, L234A L235A, V domains shown)
VH: B1 VH with Q78K, S79N, L81A
VL: B1 VL
notes: humanized SP34 IgG1, lambda
B12: D15 (antibody, human IgG1, lambda, L234A L235A, V domains shown)
VH: B1 VH with A49G
VL: B1 VL with D71G
notes: humanized SP34 IgG1, lambda
B13: E15 (antibody, human IgG1, lambda, L234A L235A, V domains shown)
VH: B1 VH with Q78K, S79N, L81A
VL: B1 VL with D71G
notes: humanized SP34 IgG1, lambda
B14: G16 (antibody, human IgG1, lambda, L234A L235A, V domains shown)
VH: B1 VH with L81A
VL: B1 VL
notes: humanized SP34 IgG1, lambda
B15: C08 (antibody, human IgG1, lambda, L234A L235A, V domains shown)
VH: B1 VH with A49G, L81A
VL: B1 VL with V38F
notes: humanized SP34 IgG1, lambda; also called C8
B16: A16 (antibody, human IgG1, lambda, L234A L235A, V domains shown)
VH: B1 VH with A49G, Q78K, S79N, L81A
VL: B1 VL
notes: humanized SP34 IgG1, lambda
B17: B16 (antibody, human IgG1, lambda, L234A L235A, V domains shown)
VH: B1 VH with A49G, Q78K, S79N
VL: B1 VL
notes: humanized SP34 IgG1, lambda
B18: H15 (antibody, human IgG1, lambda, L234A L235A, V domains shown)
VH: B1 VH
VL: B1 VL with D71G
notes: humanized SP34 IgG1, lambda
B19: D08 (antibody, human IgG1, lambda, L234A L235A, V domains shown)
VH: B1 VH with A49G
VL: B1 VL with V38F
notes: humanized SP34 IgG1, lambda; also called D8
B20: F15 (antibody, human IgG1, lambda, L234A L235A, V domains shown)
VH: B1 VH with Q78K, S79N
VL: B1 VL with D71G
notes: humanized SP34 IgG1, lambda
B21: D16 (antibody, human IgG1, lambda, L234A L235A, V domains shown)
VH: B1 VH with A49G
VL: B1 VL
notes: humanized SP34 IgG1, lambda
B22: C07 (antibody, human IgG1, lambda, L234A L235A, V domains shown)
VH: B1 VH with A49G, L81A
VL: B1 VL with V38F, D71G
notes: humanized SP34 IgG1, lambda; also called C7
B23: B07 (antibody, human IgG1, lambda, L234A L235A, V domains shown)
VH: B1 VH with A49G, Q78K, S79N
VL: B1 VL with V38F, D71G
notes: humanized SP34 IgG1, lambda; also called B7
B24: F16 (antibody, human IgG1, lambda, L234A L235A, V domains shown)
VH: B1 VH with Q78K, S79N
VL: B1 VL
notes: humanized SP34 IgG1, lambda
B25: Mouse human chimeric SP34 IgG1 antibody (antibody, V domains shown)
VH: B1 VH with G15K, S41P, T80I, S87N, V95M
VL: QAVVTQESALTTSPGETVTLTCRSSTGAVTTSNYANWVQEKPDHLFTGLIGGTNKRAPGVPARFSGSLIGDKAALTITGAQTEDEAIYFCALWYSNLWVFGGGTKLTVLG

biological target: T1, CD3 on human T cells (H9 cells, ATCC HTB-176) (human); test: flow cytometry on H9 cells, 1 µg antibody per 2x10^5 cells in 100 µl, PE anti-human IgG detection
T1 construct: whole, on cells; The target is printed as 'human T cells'
T1 sequence (P07766 23-207, chain 1 of 3): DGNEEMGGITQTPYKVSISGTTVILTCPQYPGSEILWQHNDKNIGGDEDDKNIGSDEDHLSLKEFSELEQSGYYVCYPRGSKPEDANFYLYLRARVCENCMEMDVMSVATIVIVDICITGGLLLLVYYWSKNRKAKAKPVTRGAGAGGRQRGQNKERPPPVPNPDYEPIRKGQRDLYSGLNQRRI
T1 sequence (P04234 22-171, chain 2 of 3, further chain): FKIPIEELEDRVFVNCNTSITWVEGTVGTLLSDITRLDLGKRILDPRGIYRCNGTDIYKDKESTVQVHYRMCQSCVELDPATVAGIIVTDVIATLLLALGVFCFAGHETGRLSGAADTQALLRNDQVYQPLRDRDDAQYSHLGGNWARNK
T1 sequence (P09693 23-182, chain 3 of 3, further chain): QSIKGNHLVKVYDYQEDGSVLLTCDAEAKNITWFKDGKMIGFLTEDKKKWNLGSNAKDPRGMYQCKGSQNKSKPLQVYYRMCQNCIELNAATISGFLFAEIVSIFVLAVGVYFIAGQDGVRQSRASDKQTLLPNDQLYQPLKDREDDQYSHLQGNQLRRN
Experimental: (§1) The resultant was stored for 25 minutes in the dark at 4° C. Subsequently, treatment with 3 ml of FACS buffer was performed, and centrifugation was performed at 2,000 rpm for 3 minutes. Then, the supernatant was discarded.
as §1, with “Next, 100 μl FACS buffer containing 1 μg of phycoerythrin (PE)-conjugated human IgG antibody was used to treat the cells, and the resultant” for “The resultant”
(§2) The cells were treated with a 4% formaldehyde solution, stored in the dark at 4° C. for 30 minutes, and then treated with 3 ml of FACS buffer. Centrifugation was performed at 2,000 rpm for 3 minutes, and then the supernatant was discarded. Treatment with 350 μl of FACS buffer was performed, and a flow cytometer was used to perform affinity analysis of the antibodies for the human T cells. The analysis results are illustrated in FIG. 1.

Binder	Mean : PE-A
B1	9350
B2	17700
B3	22900
B4	11600
B5	24000
B6	23100
B7	3780
B8	3080
B9	3770
B10	4310
B11	11100
B12	22600
B13	12800
B14	10300
B15	4680
B16	16700
B17	16800
B18	9620
B19	4220
B20	11200
B21	18300
B22	4620
B23	4810
B24	9530

biological target: T2, CD3 on monkey T cells (monkey splenocytes) (monkey); test: flow cytometry on monkey splenocytes, 1 µg antibody per 10^6 cells in 100 µl, PE anti-human IgG detection
T2 construct: whole, on cells; The target is printed as 'monkey T cells'
Experimental: as §1, with “Specifically, monkey splenocytes were prepared at 10⁶ cells in 100 μl FACS solution per antibody sample, and then 1 μg of antibody was used to treat the cells. The resultant” for “The resultant”
as §1, with “Next, 100 μl FACS buffer containing 1 μg of PE-conjugated human IgG antibody was used to treat the cells, and the resultant” for “The resultant”
as §2, with “2.” for “1.”

Binder	Mean : Comp-PE-A
B1	13400
B2	12100
B3	16300
B4	17300
B5	15800
B6	17800
B7	4590
B8	5530
B25	19800
B9	6760
B10	6680
B11	13900
B12	18600
B13	13500
B14	14000
B15	5670
B16	17600
B17	17200
B18	16700
B19	5120
B20	14700
B21	18600
B22	5380
B23	4790
B24	11900
